The text below walks through data of paper PMC6565675, “Cryo-electron microscopy structure of an archaeal ribonuclease P holoenzyme” (Nature Communications, 2019).

Assay [1] deals with T1, Methanocaldococcus jannaschii RNase P protein subunit Rpp30 (Methanocaldococcus jannaschii, UniProt Q58539 1-232).
T1 construct: Rpp30, protein subunit of RNase P of Methanocaldococcus jannaschii; full-length gene cloned; Purified as the (Pop5-Rpp30)2 heterotetramer; two copies in the dimeric holoenzyme; also called MjaRpp30; source: E. coli BL21 (DE3), co-expressed with MjaPop5 from pETDuet, purified (Ni-NTA, heating at 65 °C, ion-exchange, SEC)
T1 sequence (looked up): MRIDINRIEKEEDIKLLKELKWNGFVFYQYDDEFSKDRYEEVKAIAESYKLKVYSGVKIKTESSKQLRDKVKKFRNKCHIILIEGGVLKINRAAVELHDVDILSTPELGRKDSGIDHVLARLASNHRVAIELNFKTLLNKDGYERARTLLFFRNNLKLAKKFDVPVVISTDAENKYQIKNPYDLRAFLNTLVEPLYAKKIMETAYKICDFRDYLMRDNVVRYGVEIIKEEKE
Nature of the assay: cryo-EM structure; MjaRNase P holoenzyme reconstituted in vitro from RPR and the purified protein components, purified by SEC; alone (4.6 Å) and with E. coli tRNA^Tyr (4.3 Å); buffer exchanged on the grid to 40 mM Hepes, pH 7.5, 200 mM NaCl; C2 symmetry applied. The following applies: both partners purified. (SEC sorts molecules by how far they enter the pores of the column.)

Assay [2] has as its target T2, Methanocaldococcus jannaschii RNase P protein subunit Rpp21 (Methanocaldococcus jannaschii, UniProt Q58372 1-128).
T2 construct: Rpp21, protein subunit of RNase P of Methanocaldococcus jannaschii; also called MjaRpp21; source: E. coli, expressed as the MjaRpp29-MjaRpp21 heterodimer, purified by the same procedure as Pop5-Rpp30
T2 sequence: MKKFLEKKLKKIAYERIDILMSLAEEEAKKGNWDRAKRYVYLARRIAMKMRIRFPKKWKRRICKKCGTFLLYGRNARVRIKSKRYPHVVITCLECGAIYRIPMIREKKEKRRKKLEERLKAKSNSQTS
Described as above. The note with it: both partners purified.

B1: Methanocaldococcus jannaschii RNase P protein subunit Rpp29 (natural protein)
chain: MITPHNILRHELIGLKVEIVEAKNKAMIGIKGKVVDETRNTLVIEKEDGREVVIPKDIAVFLFQLKGCKVKVDGRLLIGRPEERLKKKIKILYPY
notes: Rpp29, protein subunit of RNase P of Methanocaldococcus jannaschii; also called MjaRpp29; source: E. coli, expressed as the MjaRpp29-MjaRpp21 heterodimer, purified by the same procedure as Pop5-Rpp30
Turning to B1, the binding result in assay [1] and in assay [2] was “binds” each time.
